From paper PMC5915732, “Human Cytomegalovirus Encodes a Novel FLT3 Receptor Ligand Necessary for Hematopoietic Cell Differentiation and Viral Reactivation” (mBio, 2018) come the findings set out here.

Assay [1] deals with human Fms-like tyrosine kinase 3 receptor (Flt-3R), GFP-tagged, on stable HEK-293 cells (HEK-293-hFlt-3R) (human) (UniProt P36888). The experiment in a line: ELISA; competition on cells: HEK-293-hFlt-3R cells preincubated 1 h with 100-fold excess of nonbiotinylated pUL7 (5 ug/ml), Flt-3L (5 ug/ml), anti-Flt-3R antibody (1:100) or control antibody, washed with MEM, then incubated with 50 ng/ml biotinylated pUL7; HRP-streptavidin, absorbance at 450 nm.

The target is the same in assay [2].
For assay [3], the target named is T1, human Fms-like tyrosine kinase 3 receptor (Flt-3R), GFP-tagged, on stable HEK-293 cells (HEK-293-hFlt-3R) (human, UniProt P36888 27-993).
T1 construct: human fms-tyrosine kinase 3 (FLT3), GFP-tagged, from plasmid OriGene RG211459, expressed on HEK-293 cells; In the functional rows from RS4;11 cells the receptor was the endogenous human Flt-3R of those cells, not this construct; also called human Flt-3 receptor; source: HEK-293, stably transfected (OriGene plasmid RG211459, G418 selection), on cells
T1 sequence (looked up): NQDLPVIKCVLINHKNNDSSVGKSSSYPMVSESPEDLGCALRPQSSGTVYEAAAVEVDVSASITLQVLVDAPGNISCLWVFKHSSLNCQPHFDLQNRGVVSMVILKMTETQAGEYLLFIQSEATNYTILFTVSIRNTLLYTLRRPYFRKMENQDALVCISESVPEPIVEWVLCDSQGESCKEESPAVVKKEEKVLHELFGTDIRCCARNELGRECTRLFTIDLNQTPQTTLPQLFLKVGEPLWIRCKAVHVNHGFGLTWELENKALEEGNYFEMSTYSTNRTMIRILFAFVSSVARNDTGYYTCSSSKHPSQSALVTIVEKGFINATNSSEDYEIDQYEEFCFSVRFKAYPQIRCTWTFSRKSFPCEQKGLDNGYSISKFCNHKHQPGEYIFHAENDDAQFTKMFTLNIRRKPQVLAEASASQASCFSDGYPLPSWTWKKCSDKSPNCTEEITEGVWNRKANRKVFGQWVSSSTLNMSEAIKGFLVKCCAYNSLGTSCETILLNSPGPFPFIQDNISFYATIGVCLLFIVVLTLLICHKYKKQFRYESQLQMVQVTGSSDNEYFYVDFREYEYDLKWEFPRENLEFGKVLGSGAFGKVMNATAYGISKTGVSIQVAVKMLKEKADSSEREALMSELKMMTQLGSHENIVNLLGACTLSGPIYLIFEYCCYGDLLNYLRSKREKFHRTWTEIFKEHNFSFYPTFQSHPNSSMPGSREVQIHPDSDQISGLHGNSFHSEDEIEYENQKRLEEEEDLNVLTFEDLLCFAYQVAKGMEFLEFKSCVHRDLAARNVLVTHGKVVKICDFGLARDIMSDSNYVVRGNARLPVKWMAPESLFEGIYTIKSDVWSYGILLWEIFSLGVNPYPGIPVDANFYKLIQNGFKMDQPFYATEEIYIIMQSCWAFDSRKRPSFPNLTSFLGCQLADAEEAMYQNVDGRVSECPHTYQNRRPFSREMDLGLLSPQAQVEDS
As to the kind of experiment: ELISA; competition on cells: HEK-293-hFlt-3R cells preincubated 1 h with 100-fold excess of nonbiotinylated pUL7 (5 ug/ml), Flt-3L (5 ug/ml), anti-Flt-3R antibody (1:100) or control antibody, washed with MEM, then incubated with 50 ng/ml biotinylated pUL7; HRP-streptavidin, absorbance at 450 nm. The conditions noted are these: one partner purified.

In the case of “purified UL7 (pUL7), recombinant UL7 protein from HCMV TB40E, nonbiotinylated (Fc fusion)”, the percent reduction in binding of biotinylated pUL7 (100-fold excess of competitor) in assay [1] amounted to 62%. Further, in assay [2], the phosphorylation of Akt (immunoblot) in serum-starved RS4;11 cells stimulated with 50 ng/ml pUL7, within 10 min, fold compared to the Fc control was 8 fold; the phosphorylation of ERK1/2 (immunoblot) in serum-starved RS4;11 cells stimulated with 50 ng/ml pUL7, within 10 min, fold compared to the Fc control turned out to be 9 fold; the phosphorylation of Flt-3R (immunoblot) in serum-starved RS4;11 cells stimulated with 50 ng/ml pUL7, within 10 min, fold compared to the Fc control was found to be 14 fold.

B1: recombinant human Flt-3 ligand (Flt-3L) (ligand, UniProt P49771 27-184, looked up)
chain: TQDCSFQHSPISSDFAVKIRELSDYLLQDYPVTVASNLQDEELCGGLWRLVLAQRWMERLKTVAGSKMQGLLERVNTEIHFVTKCAFQPPPSCLRFVQTNISRLLQETSEQLVALKPWITRQNFSRCLELQCQPDSSTLPPPWSPRPLEATAPTAPQP
notes: recombinant human Flt-3 ligand, soluble; No catalogue number is printed; also called soluble Flt-3 ligand; 100XFlt-3L; source: bought: R&S Systems (so in the source)
Consider B1, for which, in assay [3], the “percent reduction in binding of biotinylated pUL7 (100-fold excess of competitor)” value was 63%.
